Results taken from patent US20210198366A1 (NGM BIOPHARMACEUTICALS, published 2021).
Numbering of substitutions follows the chain as printed.

T1: human B7-H7 (soluble analyte in SPR) (human, UniProt Q9UM44 23-344, limits assumed)
T1 sequence: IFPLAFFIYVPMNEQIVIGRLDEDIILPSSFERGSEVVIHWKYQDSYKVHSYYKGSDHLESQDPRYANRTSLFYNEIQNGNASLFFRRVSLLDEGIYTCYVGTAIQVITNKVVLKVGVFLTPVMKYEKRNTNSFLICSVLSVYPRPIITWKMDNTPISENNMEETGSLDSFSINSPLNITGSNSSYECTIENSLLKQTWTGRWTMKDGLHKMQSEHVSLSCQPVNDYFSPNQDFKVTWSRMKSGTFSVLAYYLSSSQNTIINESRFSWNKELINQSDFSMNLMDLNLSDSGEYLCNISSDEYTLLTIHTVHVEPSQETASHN

T2: human B7-H7 expressed on the cell surface (human, UniProt Q9UM44 23-414)
T2 sequence: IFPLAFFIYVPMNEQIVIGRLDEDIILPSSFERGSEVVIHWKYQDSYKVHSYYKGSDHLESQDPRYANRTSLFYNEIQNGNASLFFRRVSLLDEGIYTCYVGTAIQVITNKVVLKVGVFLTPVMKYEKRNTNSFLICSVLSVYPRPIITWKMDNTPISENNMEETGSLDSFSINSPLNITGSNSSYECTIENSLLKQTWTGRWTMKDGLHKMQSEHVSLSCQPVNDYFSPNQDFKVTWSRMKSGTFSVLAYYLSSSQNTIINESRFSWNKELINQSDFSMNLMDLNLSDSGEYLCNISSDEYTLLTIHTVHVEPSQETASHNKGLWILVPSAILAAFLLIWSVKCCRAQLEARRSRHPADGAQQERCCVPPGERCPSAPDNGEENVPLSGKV

T3: cynomolgus monkey B7-H7 expressed on HEK-293T cells (cynomolgus monkey)
T3 construct: also called cyno B7-H7; cells expressing cyno B7-H7
T3 chain: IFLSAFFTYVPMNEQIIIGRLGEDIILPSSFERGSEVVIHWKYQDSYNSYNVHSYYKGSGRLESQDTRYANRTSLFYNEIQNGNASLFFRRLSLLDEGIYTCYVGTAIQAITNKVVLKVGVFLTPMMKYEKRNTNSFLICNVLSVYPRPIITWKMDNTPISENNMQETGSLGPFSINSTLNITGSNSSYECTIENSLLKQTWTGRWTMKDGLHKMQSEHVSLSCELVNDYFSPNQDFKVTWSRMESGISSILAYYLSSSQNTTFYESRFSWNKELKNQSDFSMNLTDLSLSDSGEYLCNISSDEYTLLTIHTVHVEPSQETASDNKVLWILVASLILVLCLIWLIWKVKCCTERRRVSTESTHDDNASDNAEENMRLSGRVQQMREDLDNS

T4: soluble human B7-H7-Fc fusion protein (extracellular region of human B7-H7, aa 23-344, and a human Fc … (human, UniProt Q9UM44 23-344))
T4 construct: also called hB7-H7-Fc; soluble B7-H7
T4 sequence: T1 sequence

B1: humanized anti-B7-H7 antibody Hz2D7 (antibody, human IgG1, kappa, V domains shown)
VH: QVQLVQSGAEVKKPGASVKVSCKTSGYTFTEYTMHWVRQAPGQGLEWMGGINPNNYGAPYNQKFKGRVTMTVDTSISTAYMELSRLRSDDTAVYYCASGGYYFDYWGQGTLVTVSS
VL: DIQMTQSPSSLSASVGDRVTITCKASQDVGTAVAWYQQKPGKAPKLLIYWAFTRHTGVPSRFSGSGSGTDYTLTISSLQPEDFATYYCQQHYDTPFTFGQGTKVEIKR
B2: chimeric 2D7 antibody comprising the murine heavy chain and light chain variable regions of 2D7 and a human Fc region (antibody, V domains shown)
VH: EVQLQQSGPELVKPGASVKISCKTSGYTFTEYTMHWVKQSHGKSLEWIGGINPNNYGAPYNQKFKGKATLTVDKSSNTAYMELRSLTSEDSAIYYCASGGYYFDYWGQGTTLTVSS
VL: DIVMTQSHKFMSTSFGDRVSITCKASQDVGTAVAWYQQKLGQSPKLLISWAFTRHTGVPDRFTGSGSGTDYTLTISSLQAEDLALYYCQQHYDTPFTFGSGTKLEIK
B3: anti-B7-H7 antibody 5B10 (antibody, V domains shown)
VH: EVQLQQSGPELEKPGASVKISCKASGYSFTGYNMNWVKQSNGKSLEWIGNIDPYSGGSTYNQKFKGKATLTVDKSSSTASLQLKSLTSEDSSVYYCARSFYDAPYLTYWGQGTLVTVSA
VL: DIQMTQSPTSLSASVGETVTITCRASENIFIYLAWYQQKQGKSPQLLVFNAKTLAEGVPSRFSGSGSGTQFSLKINSLRPEDFGTYYCQHHYGTPPTFGGGTKLEV
notes: Mouse hybridoma antibody
B4: anti-B7-H7 antibody 1D3 (antibody, V domains shown)
VH: B3 VH with Q39E, K43R, L70M, S80Y, L81M, S92A, F100V, Y105W, T107A, Y108H
VL: DIQMTQSPASLSASVGETVTITCRASENIYIYLAWYQQKQGKSPQLLVYNAKTLAEGVPSRFSGSGSGTQFSLKINRLQPEDFGNYYCQHHYGTPPTFGGGTKLEIK
notes: Mouse hybridoma antibody
B5: anti-B7-H7 antibody 28F5 (antibody, V domains shown)
VH: QVQLKESGPGLVAPSQSLSITCTVSGFSLTGYGVNWVRQPPGKGLEWLGVIWGDGSTDYNSVLKSRLSISKDNSKSQVFLKMNSLQTDDTARYYCAREATEYLYWYFDVWGAGTTVTVSS
VL: DIVLTQSPASLAVSLGQRATISCRASESVEYYGSSLMQWYQQKPGQPPKLLIFAASNVESGVPPRFSGSGSGTDFNLNIHPVDEDDIAMYFCQQGRRVPWTFGGGTKLEIK
notes: Mouse hybridoma antibody
B6: anti-B7-H7 antibody 2F10 (antibody, V domains shown)
VH: EIQLQQTGPELVKPGASLRISCKASGYSFTDYIIVWVKQNQGKNLDWIEKINPYYGTTTYNLRFEDKATLTVNKSSTTAYMQLNSLTSEDSAVYYCARWDYVSTLFAMDYWGQGTSITVSS
VL: DIVMTQSHKVMSTSVGDRVSIICKASQDVGTAVAWYQQKPGQSPKLLIYWASTRHTGVPDRFTGSGSGTDFILTITNVQSENLANYFCQQYKRYYTFGGGTKLEIK
notes: Mouse hybridoma antibody
B7: anti-B7-H7 antibody 5C9 (antibody, V domains shown)
VH: QVQLQQSGAELAKPGASVKMSCKASGYTFTSFWIHWIKQRPGQGLEWIGYIIPNTDYTEYNQKFKDKATFTADKSSSTAYMQLSSLTSEDSAVFYCARGLRGAYYFDYWGQGTTLTVSS
VL: DIVLTQSPASLAVSLGLRATISCRSSQSVSTSTNGYMHWYQQKPGQPPKLLIMYASNLESGVPARFSGSGSGTDFTLNIHPVDEEDTATYYCQHSWVLPYTFGGGTKLEIK
notes: Mouse hybridoma antibody
B8: anti-B7-H7 antibody 16D5 (antibody, V domains shown)
VH: QVQLQQSAAELARPGASVKMSCKASGYTFTTYTMHWVKQRPGQGLEWIGYINPSRGYSDYSQKFQGKSTLTTDKSSNTAYIQLTSLTSEDSAVYFCARGGYDFDYWGQGTTLTVSS
VL: DIVMTQSHKFMSTSVGDRVSITCKASQDVGTAVAWYQQKPGQSPKLLLYWASTRHTGVPDRFTGSGSGTDYTLTISSVQAEDLALYHCQQHFITPYTFGGGTKLEIK
notes: Mouse hybridoma antibody
B9: anti-B7-H7 antibody 5F7 (antibody, V domains shown)
VH: QEQLQQPGTELVKPGASVKISCKASGYTFSSYSMHWVKLTPGQGLEWMGTIYPGNENTSYNQKFKGKATLTADKSSSTAYMQLSSLTSEDSAVYYCARGGYYFDYWGQGTTLTVSS
VL: B8 VL with M11L, G30S, L48I, P59S, Y71F, H87Y, I93D, T94I, T97W
notes: Mouse hybridoma antibody
B10: anti-B7-H7 antibody 3H6 (antibody, V domains shown)
VH: B2 VH with Y56G, N77S, I93V, S98R
VL: B2 VL with F15V, G30S, L40S, S49Y, F52S, L78V, S100G
notes: Mouse hybridoma antibody

Target: T1, human B7-H7 (soluble analyte in SPR)
Assay: SPR (Biacore)
Method: (§1) The binding affinities of exemplary anti-B7-H7 antibodies to human B7-H7 and cyno B7-H7 were measured using SPR technology (Biacore system, GE Healthcare Life Sciences). Briefly, anti-Fc antibody (Sigma-Aldrich) was immobilized on all four flow cells of a CM5 chip using amine coupling reagents (GE Healthcare LifeSciences). Exemplary antibodies were captured on flow cells 2, 3, and 4 using flow cell 1 as a reference. Human B7-H7 or cyno B7-H7 (samples ranging from 0.62-40 nM) were injected at a flow rate of 50 μL/min at 37° C. Kinetic data were collected over time and fit using the simultaneous global fit equation to yield affinity constants (KD values) for each antibody.
The binding affinity of Hz2D7 to human B7-H7 and cyno B7-H7 was determined using SPR technology (Biacore system) as described herein and compared with the binding affinity of the parental antibody and with a chimeric 2D7 antibody comprising the murine heavy chain and light chain variable regions of 2D7 and a human Fc region.

Row | Binder | Kd [nM] | koff [s⁻¹]
1 | B1 | < 0.1 | 1.01e-05
2 | B2 | < 0.1 | 5.61e-06

Target: T2, human B7-H7 expressed on the cell …
Assay: cell-based or functional assay

Row | Binder | Induction of NK-92 cytotoxicity EC50 [nM] | Induction of NK-92 cytotoxicity Relative efficacy [%]
3 | B3 | 1.6 | 148
4 | B4 | 1.2 | 136
5 | B5 | 0.5 | 150
6 | B6 | 0.9 | 146
7 | B7 | 1.6 | 155
8 | B8 | 0.5 | 135
9 | B9 | 0.6 | 151
10 | B10 | 0.8 | 105

Target: T3, cynomolgus monkey B7-H7 expressed on …
Assay: FACS on HEK-293T cells expressing cyno B7-H7

Row | Binder | MFI [MFI]
11 | B3 | 93
12 | B4 | 214
13 | B5 | 165
14 | B6 | 134
15 | B7 | 176
16 | B8 | 199
17 | B9 | 195
18 | B10 | 568

Target: T2, human B7-H7 expressed on the cell …
Assay: FACS on HEK-293T cells expressing human B7-H7

Row | Binder | MFI [MFI]
19 | B3 | 82
20 | B4 | 247
21 | B5 | 152
22 | B6 | 101
23 | B7 | 185
24 | B8 | 165
25 | B9 | 163
26 | B10 | 41

Target: T1, human B7-H7 (soluble analyte in SPR)
Assay: SPR (Biacore), antibody captured by anti-Fc on CM5 chip, B7-H7 injected, 37 C
Method: as §1

Row | Binder | Kd [nM]
27 | B3 | 4
28 | B4 | 0.9
29 | B5 | 0.4
30 | B6 | 0.3
31 | B7 | 0.8
32 | B8 | 0.2
33 | B9 | 0.6
34 | B10 | 0.8

Target: T4, soluble human B7-H7-Fc fusion protein …
Assay: FACS competition: antibody titrated against soluble hB7-H7-Fc binding to HEK-293 cells expressing human CD28H
Method: (§2) Exemplary anti-B7-H7 antibodies identified by ELISA and FACS were tested for their ability to block binding of soluble B7-H7 to receptors KIR3DL3 or CD28H in a FACS assay. HEK-293 cells were transiently transfected with a construct encoding (i) a membrane-bound KIR3DL3 protein or (ii) a membrane-bound CD28H protein. After 48 hours, transfected cells were suspended in ice cold PBS containing 1% FBS and 0.1% sodium azide and incubated on ice in the presence of […]/ml of soluble human B7-H7-Fc protein and antibodies 2D7, 1D3, 28F3, 16D5, 2F10, 5F7, 5B10, 5C9, or 3H6 (serially diluted from […] to 4.6 ng/ml). A second incubation with an anti-human Fc secondary antibody was performed to detect cells bound by the soluble B7-H7-Fc. The cells were analyzed on a BD FACSCalibur instrument (BD Biosciences) and the data was processed using FlowJo software. Calculated IC50s are shown Table 12.

Row | Binder | IC50 [nM]
35 | B3 | 3.4
36 | B4 | 8
37 | B5 | 2.7
38 | B6 | 3
39 | B7 | 3.4
40 | B8 | 2
41 | B9 | 1.8
42 | B10 | 2.5

Target: T4, soluble human B7-H7-Fc fusion protein …
Assay: FACS competition: antibody titrated against soluble hB7-H7-Fc binding to HEK-293 cells expressing human KIR3DL3
Method: as §2

Row | Binder | IC50 [nM]
43 | B3 | 2.4
44 | B4 | 5
45 | B5 | 2.6
46 | B6 | 2.5
47 | B7 | 3
48 | B8 | 1.7
49 | B9 | 1.6
50 | B10 | 2.7
